In assay [1] the target is His6-AviTag-MBP-TEV-POLE2 (human, UniProt P56282 1-527, biotin on the AviTag (BirA co-expressed, biotin in the medium)). Briefly: nHU, apparent Kd.
For assay [2], the target named is catalytic subunit of DNA polymerase ε (POLE), endogenous (human (endogenous in Jurkat and in …, UniProt Q07864 1-2286)). The assay can be described thus: nHU, apparent Kd.
Assay [3] addresses HA-MBP-POLE2 (human, UniProt P56282 1-527). Briefly: nHU in cell extract, apparent Kd, f = 0.37.
In assay [4] the target is HA-POLE2 (human, UniProt P56282 1-527). Briefly: nHU, apparent Kd, f = 0.82.
HA-POLE2, sequence (P56282 whole entry): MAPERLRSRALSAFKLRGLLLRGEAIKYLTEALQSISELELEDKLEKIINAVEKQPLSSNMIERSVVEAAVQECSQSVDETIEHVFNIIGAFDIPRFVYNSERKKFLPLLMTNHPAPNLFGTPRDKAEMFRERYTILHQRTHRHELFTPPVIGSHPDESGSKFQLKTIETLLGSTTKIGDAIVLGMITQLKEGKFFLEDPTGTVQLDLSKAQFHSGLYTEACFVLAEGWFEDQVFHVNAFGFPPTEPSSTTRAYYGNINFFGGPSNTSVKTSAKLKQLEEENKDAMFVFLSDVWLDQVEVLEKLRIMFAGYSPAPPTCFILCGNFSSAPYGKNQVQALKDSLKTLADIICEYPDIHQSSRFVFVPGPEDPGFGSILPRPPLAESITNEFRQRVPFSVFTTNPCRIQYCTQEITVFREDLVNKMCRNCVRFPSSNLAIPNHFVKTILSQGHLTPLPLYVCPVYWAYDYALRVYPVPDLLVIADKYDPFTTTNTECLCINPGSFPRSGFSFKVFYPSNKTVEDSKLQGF

*: point of attachment. Biotin = O=C1N[C@H]2[C@H](CS[C@H]2CCCCC(=O)*)N1; TTDS = Trioxatridecan-succinamic acid linker

His6-AviTag-MBP-TEV-POLE2, sequence (P56282 whole entry): as above
catalytic subunit of DNA polymerase ε (POLE), endogenous (human, sequence (Q07864 whole entry): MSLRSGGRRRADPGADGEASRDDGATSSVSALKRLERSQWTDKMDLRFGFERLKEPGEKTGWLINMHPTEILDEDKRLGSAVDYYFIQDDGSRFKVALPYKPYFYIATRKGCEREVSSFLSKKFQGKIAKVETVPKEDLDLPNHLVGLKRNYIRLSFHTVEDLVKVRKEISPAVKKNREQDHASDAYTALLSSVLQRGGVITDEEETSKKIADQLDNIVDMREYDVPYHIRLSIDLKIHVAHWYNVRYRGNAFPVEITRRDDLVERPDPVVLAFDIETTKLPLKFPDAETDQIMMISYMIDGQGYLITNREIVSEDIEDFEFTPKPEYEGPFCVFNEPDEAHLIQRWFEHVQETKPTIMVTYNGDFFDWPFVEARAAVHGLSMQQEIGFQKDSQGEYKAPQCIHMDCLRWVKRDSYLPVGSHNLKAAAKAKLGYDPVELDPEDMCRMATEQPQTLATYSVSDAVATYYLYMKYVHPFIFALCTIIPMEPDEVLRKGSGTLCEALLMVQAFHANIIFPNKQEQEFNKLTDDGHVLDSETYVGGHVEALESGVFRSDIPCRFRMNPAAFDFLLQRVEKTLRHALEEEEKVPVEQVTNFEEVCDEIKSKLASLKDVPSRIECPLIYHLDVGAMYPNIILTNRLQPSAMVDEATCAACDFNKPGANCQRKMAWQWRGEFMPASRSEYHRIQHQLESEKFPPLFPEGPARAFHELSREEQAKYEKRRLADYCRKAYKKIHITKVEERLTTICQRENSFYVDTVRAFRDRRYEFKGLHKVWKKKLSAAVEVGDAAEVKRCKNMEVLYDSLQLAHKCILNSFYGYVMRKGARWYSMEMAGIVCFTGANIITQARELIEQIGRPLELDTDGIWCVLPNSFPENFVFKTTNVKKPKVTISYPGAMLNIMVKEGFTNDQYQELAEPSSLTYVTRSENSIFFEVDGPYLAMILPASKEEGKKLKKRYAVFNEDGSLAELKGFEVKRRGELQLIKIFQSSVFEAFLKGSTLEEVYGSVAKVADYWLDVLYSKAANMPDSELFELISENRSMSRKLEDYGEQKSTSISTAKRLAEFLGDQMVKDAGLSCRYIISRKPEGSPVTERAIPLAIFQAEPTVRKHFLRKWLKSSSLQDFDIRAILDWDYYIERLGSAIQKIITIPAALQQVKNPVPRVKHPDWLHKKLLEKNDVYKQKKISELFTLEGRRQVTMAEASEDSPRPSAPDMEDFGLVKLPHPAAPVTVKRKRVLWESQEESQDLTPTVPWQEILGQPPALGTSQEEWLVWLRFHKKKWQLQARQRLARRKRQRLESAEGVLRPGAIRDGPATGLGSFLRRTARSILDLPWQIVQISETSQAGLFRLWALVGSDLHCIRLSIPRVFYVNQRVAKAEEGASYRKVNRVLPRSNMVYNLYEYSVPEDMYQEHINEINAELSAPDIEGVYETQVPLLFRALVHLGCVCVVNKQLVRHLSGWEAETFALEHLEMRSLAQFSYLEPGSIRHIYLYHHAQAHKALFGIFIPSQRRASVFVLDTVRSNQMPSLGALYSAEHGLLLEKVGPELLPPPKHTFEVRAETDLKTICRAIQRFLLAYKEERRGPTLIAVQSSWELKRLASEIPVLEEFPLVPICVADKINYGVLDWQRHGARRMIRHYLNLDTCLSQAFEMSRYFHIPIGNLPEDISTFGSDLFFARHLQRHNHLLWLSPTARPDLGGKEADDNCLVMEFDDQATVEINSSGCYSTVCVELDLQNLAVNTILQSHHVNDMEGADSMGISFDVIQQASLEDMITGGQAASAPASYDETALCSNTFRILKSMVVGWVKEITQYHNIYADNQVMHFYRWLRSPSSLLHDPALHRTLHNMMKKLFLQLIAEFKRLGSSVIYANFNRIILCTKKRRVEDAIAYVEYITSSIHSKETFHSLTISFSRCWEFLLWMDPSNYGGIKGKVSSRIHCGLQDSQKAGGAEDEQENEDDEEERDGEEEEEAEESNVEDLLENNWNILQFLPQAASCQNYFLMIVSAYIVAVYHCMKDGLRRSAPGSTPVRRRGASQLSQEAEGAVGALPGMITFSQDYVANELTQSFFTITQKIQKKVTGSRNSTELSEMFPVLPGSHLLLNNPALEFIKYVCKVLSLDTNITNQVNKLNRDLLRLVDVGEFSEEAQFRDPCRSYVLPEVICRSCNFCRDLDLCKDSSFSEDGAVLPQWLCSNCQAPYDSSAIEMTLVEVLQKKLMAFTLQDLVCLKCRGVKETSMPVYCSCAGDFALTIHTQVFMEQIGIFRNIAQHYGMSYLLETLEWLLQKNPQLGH
HA-MBP-POLE2, sequence (P56282 whole entry): as the sequence (P56282 whole entry) above

B1: HA-ERCC6L, full length, intact NPF motif (natural protein)
chain: MEASRRFPEAEALSPEQAAHYLRYVKEAKEATKNGDLEEAFKLFNLAKDIFPNEKVLSRIQKIQEALEELAEQGDDEFTDVCNSGLLLYRELHNQLFEHQKEGIAFLYSLYRDGRKGGILADDMGLGKTVQIIAFLSGMFDASLVNHVLLIMPTNLINTWVKEFIKWTPGMRVKTFHGPSKDERTRNLNRIQQRNGVIITTYQMLINNWQQLSSFRGQEFVWDYVILDEAHKIKTSSTKSAICARAIPASNRLLLTGTPIQNNLQELWSLFDFACQGSLLGTLKTFKMEYENPITRAREKDATPGEKALGFKISENLMAIIKPYFLRRTKEDVQKKKSSNPEARLNEKNPDVDAICEMPSLSRKNDLIIWIRLVPLQEEIYRKFVSLDHIKELLMETRSPLAELGVLKKLCDHPRLLSARACCLLNLGTFSAQDGNEGEDSPDVDHIDQVTDDTLMEESGKMIFLMDLLKRLRDEGHQTLVFSQSRQILNIIERLLKNRHFKTLRIDGTVTHLLEREKRINLFQQNKDYSVFLLTTQVGGVGLTLTAATRVVIFDPSWNPATDAQAVDRVYRIGQKENVVVYRLITCGTVEEKIYRRQVFKDSLIRQTTGEKKNPFRYFSKQELRELFTIEDLQNSVTQLQLQSLHAAQRKSDIKLDEHIAYLQSLGIAGISDHDLMYTCDLSVKEELDVVEESHYIQQRVQKAQFLVEFESQNKEFLMEQQRTRNEGAWLREPVFPSSTKKKCPKLNKPQPQPSPLLSTHHTQEEDISSKMASVVIDDLPKEGEKQDLSSIKVNVTTLQDGKGTGSADSIATLPKGFGSVEELCTNSSLGMEKSFATKNEAVQKETLQEGPKQEALQEDPLESFNYVLSKSTKADIGPNLDQLKDDEILRHCNPWPIISITNESQNAESNVSIIEIADDLSASHSALQDAQASEAKLEEEPSASSPQYACDFNLFLEDSADNRQNFSSQSLEHVEKENSLCGSAPNSRAGFVHSKTCLSWEFSEKDDEPEEVVVKAKIRSKARRIVSDGEDEDDSFKDTSSINPFNTSLFQFSSVKQFDASTPKNDISPPGRFFSSQIPSSVNKSMNSRRSLASRRSLINMVLDHVEDMEERLDDSSEAKGPEDYPEEGVEESSGEASKYTEEDPSGETLSSENKSSWLMTSKPSALAQETSLGAPEPLSGEQLVGSPQDKAAEATNDYETLVKRGKELKECGKIQEALNCLVKALDIKSADPEVMLLTLSLYKQLNNN
Regarding B1, the Kd in assay [1] is 2400 nM.

B2: NPF motif peptide of TTF2 (residues 116-143) (peptide)
peptide: HHSSNWLRNPFKVLDKNQEPALWKQLIK
HELM: PEPTIDE1{[O=C1N[C@H]2[C@H](CS[C@H]2CCCCC(=O)[*:2])N1].[O=C(CCCCCN[*:1])[*:2]].H.H.S.S.N.W.L.R.N.P.F.K.V.L.D.K.N.Q.E.P.A.L.W.K.Q.L.I.K.[am]}$$$$V2.0
SMILES: CC[C@H](C)[C@H](NC(=O)[C@H](CC(C)C)NC(=O)[C@H](CCC(N)=O)NC(=O)[C@H](CCCCN)NC(=O)[C@H](Cc1c[nH]c2ccccc12)NC(=O)[C@H](CC(C)C)NC(=O)[C@H](C)NC(=O)[C@@H]1CCCN1C(=O)[C@H](CCC(=O)O)NC(=O)[C@H](CCC(N)=O)NC(=O)[C@H](CC(N)=O)NC(=O)[C@H](CCCCN)NC(=O)[C@H](CC(=O)O)NC(=O)[C@H](CC(C)C)NC(=O)[C@@H](NC(=O)[C@H](CCCCN)NC(=O)[C@H](Cc1ccccc1)NC(=O)[C@@H]1CCCN1C(=O)[C@H](CC(N)=O)NC(=O)[C@H](CCCNC(=N)N)NC(=O)[C@H](CC(C)C)NC(=O)[C@H](Cc1c[nH]c2ccccc12)NC(=O)[C@H](CC(N)=O)NC(=O)[C@H](CO)NC(=O)[C@H](CO)NC(=O)[C@H](Cc1c[nH]cn1)NC(=O)[C@H](Cc1c[nH]cn1)NC(=O)CCCCCNC(=O)CCCC[C@@H]1SC[C@@H]2NC(=O)N[C@@H]21)C(C)C)C(=O)N[C@@H](CCCCN)C(N)=O
Consider B2, for which the Kd in assay [2] was found to be 720 nM.

For {Biotin-TTDS}-GPAAARRNPFARLDNRPR-NH2 [NPF motif peptide of DONSON (residues 71-88)], the Kd is 1300 nM in assay [3] and 520 nM in assay [4].

B3: HA-TTF2, full length, intact NPF motifs (natural protein)
chain: MEEVRCPEHGTFCFLKTGVRDGPNKGKSFYVCRADTCSFVRATDIPVSHCLLHEDFVVELQGLLLPQDKKEYRLFFRCIRSKAEGKRWCGSIPWQDPDSKEHSVSNKSQHASETFHHSSNWLRNPFKVLDKNQEPALWKQLIKGEGEEKKADKKQREKGDQLFDQKKEQKPEMMEKDLSSGLVPKKKQSVVQEKKQEEGAEIQCEAETGGTHKRDFSEIKSQQCQGNELTRPSASSQEKSSGKSQDVQRESEPLREKVTQLLPQNVHSHNSISKPQKGGPLNKEYTNWEAKETKAKDGPSIQATQKSLPQGHFQERPETHSVPAPGGPAAQAAPAAPGLSLGEGREAATSSDDEEEDDVVFVSSKPGSPLLFDSTLDLETKENLQFPDRSVQRKVSPASGVSKKVEPSDPVARRVYLTTQLKQKKSTLASVNIQALPDKGQKLIKQIQELEEVLSGLTLSPEQGTNEKSNSQVPQQSHFTKTTTGPPHLVPPQPLPRRGTQPVGSLELKSACQVTAGGSSQCYRGHTNQDHVHAVWKITSEAIGQLHRSLESCPGETVVAEDPAGLKVPLLLHQKQALAWLLWRESQKPQGGILADDMGLGKTLTMIALILTQKNQEKKEEKEKSTALTWLSKDDSCDFTSHGTLIICPASLIHHWKNEVEKRVNSNKLRVYLYHGPNRDSRARVLSTYDIVITTYSLVAKEIPTNKQEAEIPGANLNVEGTSTPLLRIAWARIILDEAHNVKNPRVQTSIAVCKLQACARWAVTGTPIQNNLLDMYSLLKFLRCSPFDEFNLWRSQVDNGSKKGGERLSILTKSLLLRRTKDQLDSTGRPLVILPQRKFQLHHLKLSEDEETVYNVFFARSRSALQSYLKRHESRGNQSGRSPNNPFSRVALEFGSEEPRHSEAADSPRSSTVHILSQLLRLRQCCCHLSLLKSALDPMELKGEGLVLSLEEQLSALTLSELRDSEPSSTVSLNGTFFKMELFEGMRESTKISSLLAELEAIQRNSASQKSVIVSQWTNMLKVVALHLKKHGLTYATIDGSVNPKQRMDLVEAFNHSRGPQVMLISLLAGGVGLNLTGGNHLFLLDMHWNPSLEDQACDRIYRVGQQKDVVIHRFVCEGTVEEKILQLQEKKKDLAKQVLSGSGESVTKLTLADLRVLFGI
Turning to B3, the Kd in assay [1] was determined as 300 nM.

B4: HA-WDHD1, full length, intact NPF motif (natural protein)
chain: MPATRKPMRYGHTEGHTEVCFDDSGSFIVTCGSDGDVRIWEDLDDDDPKFINVGEKAYSCALKSGKLVTAVSNNTIQVHTFPEGVPDGILTRFTTNANHVVFNGDGTKIAAGSSDFLVKIVDVMDSSQQKTFRGHDAPVLSLSFDPKDIFLASASCDGSVRVWQISDQTCAISWPLLQKCNDVINAKSICRLAWQPKSGKLLAIPVEKSVKLYRRESWSHQFDLSDNFISQTLNIVTWSPCGQYLAAGSINGLIIVWNVETKDCMERVKHEKGYAICGLAWHPTCGRISYTDAEGNLGLLENVCDPSGKTSSSKVSSRVEKDYNDLFDGDDMSNAGDFLNDNAVEIPSFSKGIINDDEDDEDLMMASGRPRQRSHILEDDENSVDISMLKTGSSLLKEEEEDGQEGSIHNLPLVTSQRPFYDGPMPTPRQKPFQSGSTPLHLTHRFMVWNSIGIIRCYNDEQDNAIDVEFHDTSIHHATHLSNTLNYTIADLSHEAILLACESTDELASKLHCLHFSSWDSSKEWIIDLPQNEDIEAICLGQGWAAAATSALLLRLFTIGGVQKEVFSLAGPVVSMAGHGEQLFIVYHRGTGFDGDQCLGVQLLELGKKKKQILHGDPLPLTRKSYLAWIGFSAEGTPCYVDSEGIVRMLNRGLGNTWTPICNTREHCKGKSDHYWVVGIHENPQQLRCIPCKGSRFPPTLPRPAVAILSFKLPYCQIATEKGQMEEQFWRSVIFHNHLDYLAKNGYEYEESTKNQATKEQQELLMKMLALSCKLEREFRCVELADLMTQNAVNLAIKYASRSRKLILAQKLSELAVEKAAELTATQVEEEEEEEDFRKKLNAGYSNTATEWSQPRFRNQVEEDAEDSGEADDEEKPEIHKPGQNSFSKSTNSSDVSAKSGAVTFSSQGRVNPFKVSASSKEPAMSMNSARSTNILDNMGKSSKKSTALSRTTNNEKSPIIKPLIPKPKPKQASAASYFQKRNSQTNKTEEVKEENLKNVLSETPAICPPQNTENQRPKTGFQMWLEENRSNILSDNPDFSDEADIIKEGMIRFRVLSTEERKVWANKAKGETASEGTEAKKRKRVVDESDETENQEEKAKENLNLSKKQKPLDFSTNQKLSAFAFKQE
With B4, the Kd in assay [1] is 70 nM.

B5: NPF motif peptide of WDHD1 (residues 906-924) (peptide)
peptide: SSQGRVNPFKVSASSKEPA
HELM: PEPTIDE1{[O=C1N[C@H]2[C@H](CS[C@H]2CCCCC(=O)[*:2])N1].[O=C(CCCCCN[*:1])[*:2]].S.S.Q.G.R.V.N.P.F.K.V.S.A.S.S.K.E.P.A.[am]}$$$$V2.0
SMILES: CC(C)[C@H](NC(=O)[C@H](CCCCN)NC(=O)[C@H](Cc1ccccc1)NC(=O)[C@@H]1CCCN1C(=O)[C@H](CC(N)=O)NC(=O)[C@@H](NC(=O)[C@H](CCCNC(=N)N)NC(=O)CNC(=O)[C@H](CCC(N)=O)NC(=O)[C@H](CO)NC(=O)[C@H](CO)NC(=O)CCCCCNC(=O)CCCC[C@@H]1SC[C@@H]2NC(=O)N[C@@H]21)C(C)C)C(=O)N[C@@H](CO)C(=O)N[C@@H](C)C(=O)N[C@@H](CO)C(=O)N[C@@H](CO)C(=O)N[C@@H](CCCCN)C(=O)N[C@@H](CCC(=O)O)C(=O)N1CCC[C@H]1C(=O)N[C@@H](C)C(N)=O
For the molecule B5, the Kd in assay [2] amounted to 14000 nM.

These data come from publication PMC12808100 (2025).
